Assays:
[1] = molecular target: T1, Human CD93 on cells (human CD93 expressing CHO cells; HUVEC, U937 and KG1a cells) (human, UniProt Q9NPY3 22-652); assay: flow cytometry titration, HUVEC cells
T1 construct: whole, on cells; also called hCD93 expressing CHO cells; hCD93 CHO cells
T1 sequence (looked up): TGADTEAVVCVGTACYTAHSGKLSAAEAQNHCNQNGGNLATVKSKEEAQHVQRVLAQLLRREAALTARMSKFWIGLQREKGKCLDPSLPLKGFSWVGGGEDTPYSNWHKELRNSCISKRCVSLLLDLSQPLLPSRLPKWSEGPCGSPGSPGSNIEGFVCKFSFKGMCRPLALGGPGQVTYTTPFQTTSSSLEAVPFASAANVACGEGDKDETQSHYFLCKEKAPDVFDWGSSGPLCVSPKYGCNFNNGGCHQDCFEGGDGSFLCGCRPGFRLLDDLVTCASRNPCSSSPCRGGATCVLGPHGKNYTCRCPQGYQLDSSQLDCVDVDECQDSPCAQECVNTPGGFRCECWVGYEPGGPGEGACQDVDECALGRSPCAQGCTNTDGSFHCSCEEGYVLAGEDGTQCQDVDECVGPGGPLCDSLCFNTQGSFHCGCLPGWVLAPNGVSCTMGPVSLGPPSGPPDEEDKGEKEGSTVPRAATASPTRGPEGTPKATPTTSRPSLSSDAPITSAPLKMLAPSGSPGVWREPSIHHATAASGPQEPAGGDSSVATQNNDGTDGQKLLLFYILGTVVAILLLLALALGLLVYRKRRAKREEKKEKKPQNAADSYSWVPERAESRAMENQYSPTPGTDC
Experimental: (§1) HUVEC cells were detached by incubation with TrypLE reagents (Thermo Fisher), which preserves the integrity of CD93 on the cell surface. Then the cells were incubated with serial diluted anti-CD93 antibodies for 30 minutes at 4° C. After washing by FACS buffer, the cells were incubated with Alexa Fluor 647 conjugated anti-human IgG (Jackson ImmunoResearch) for 30 minutes in 4° C. After washing by FACS buffer twice, the samples were acquired in NovoCyte Flow Cytometer and analyzed by NovoExpress software.

[2] = molecular target: T1, Human CD93 on cells (human CD93 …); assay: summary table, column FACS (HUVEC cells); 2 weeks at 40 C
Experimental: as §1

[3] = molecular target: T1, Human CD93 on cells (human CD93 …); assay: flow cytometry titration, HUVEC cells; antibody stored 2 weeks at 40 C
Experimental: as §1

[4] = molecular target: T1, Human CD93 on cells (human CD93 …); assay: flow cytometry blocking assay, CHO-hCD93 cells; blocked ligand hMMRN2 495-674 at 0.1 ug/ml; antibody stored 2 weeks at 40 C
Experimental: Then the cells were incubated with hMMRN2₄₉₅₋₆₇₄ at 0.1 μg/ml. […] After washing with FACS buffer twice, the samples were analyzed, and data acquired in NovoCyte Flow. Recombinant his tagged hMMRN2₄₉₅₋₆₇₄ was produced internally in E. Coli following routine procedure.

[5] = molecular target: T1, Human CD93 on cells (human CD93 …); assay: flow cytometry blocking assay, CHO-hCD93 cells, antibody 50 ug/ml then MMRN2 0.5 ug/ml, APC-A
Experimental: After incubation, the cells were washed with FACS buffer and incubated with anti-His conjugated APC or streptavidin conjugated APC at a ratio of 1:500 for 30 minutes at 4° C. After washing with FACS buffer twice, the samples were analyzed and data acquired in NovoCyte Flow.

[6] = molecular target: T2, Human CD93 recombinant protein (Sino Biological Inc, Catalog #12589-H08H) (human, UniProt Q9NPY3 22-580); assay: BLI (Octet QKe), biotinylated human CD93 on streptavidin biosensors
T2 construct: Biotinylated (EZ-LINK NHS-PEG4 biotin) in the BLI assays; also called hCD93; His-tagged human CD93
T2 sequence (looked up): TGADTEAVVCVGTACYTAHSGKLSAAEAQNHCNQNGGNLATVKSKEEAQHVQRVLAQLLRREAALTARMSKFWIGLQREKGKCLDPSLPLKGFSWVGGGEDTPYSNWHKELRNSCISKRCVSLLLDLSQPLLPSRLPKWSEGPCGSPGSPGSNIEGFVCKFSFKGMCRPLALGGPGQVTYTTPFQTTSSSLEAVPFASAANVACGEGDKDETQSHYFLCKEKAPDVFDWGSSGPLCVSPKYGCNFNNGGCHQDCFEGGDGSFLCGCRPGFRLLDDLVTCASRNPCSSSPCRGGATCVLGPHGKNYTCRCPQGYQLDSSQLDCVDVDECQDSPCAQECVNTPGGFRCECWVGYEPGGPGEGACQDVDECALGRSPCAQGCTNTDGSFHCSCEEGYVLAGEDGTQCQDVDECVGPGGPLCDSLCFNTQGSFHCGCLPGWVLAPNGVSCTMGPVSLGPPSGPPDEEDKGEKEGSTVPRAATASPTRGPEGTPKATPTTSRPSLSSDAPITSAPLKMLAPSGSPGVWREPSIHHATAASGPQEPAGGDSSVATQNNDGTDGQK
Experimental: The binding affinity of anti-CD93 antibodies was determined with bio-layer interferometry using Octet QKe (Fortebio). […] Human CD93 recombinant protein (Sino Biological Inc, Catalog #12589-H08H) was biotinylated using EZ-LINK NHS-PEG4 biotin (Thermo Fisher Scientific). Streptavidin biosensors (Fortebio) were used to load biotinylated CD93 protein (300 seconds in 5 μg/ml). Baseline was stabilized for 60 seconds in 1× kinetics buffer (Fortebio) before anti-CD93 antibodies, at a serial dilution, were allowed to associate for 300 seconds with captured protein. Then the sensors were dissociated in 1× kinetics buffer for 600 seconds. […] (FIG. 42).

[7] = molecular target: T1, Human CD93 on cells (human CD93 …); assay: flow cytometry titration, CHO-hCD93 cells; antibody stored 2 weeks at 40 C
Experimental: as §1, with “Human CD93 expressing CHO” for “HUVEC”

B1: h7F3 (humanized 7F3, VH3+VL3) (antibody, human IgG1, V domains shown)
VH: QVQLVQSGAEVKKPGASVKVSCKASGYTFTDYEMHWVRQAPGQGLEWMGGIDPETGDTAYNQNFKGRVTMTTDTSTSTAYMELRSLTSDDTAVYYCTNYGNLYYYAMDYWGQGTSVTVSS
VL: EIVLTQSPSSLSASVGDRVTITCRASSSVSSSYLHWYQQKPGKAPKLLIYSTSNLAFGVPSRFSGSGSGTSYTFTISSLQPEDIATYYCQQYSGYPLTFGSGTKLEIK
notes: also called humanized 7F3-hIgG1
For B1, which EC50 [1] is on record?
The EC50 was 1.34 nM.

What about the EC50 [2] of the same binder?
The EC50 was 1.17 nM.

What about the EC50 [3] of the same binder?
Its EC50 is 1.17 nM.

What about the IC50 [4] of the same binder?
The IC50 was 0.133 nM.

B2: 16E4 (hybridoma) (antibody, IgG2a, V domains shown)
VH: QVQLQQPGAELVKPGASVKLSCKASGYTFTSYWMHWVKQRPGQGLEWIGEIDPSASYTYYNQKFKGKATLTVDKSSSTAYMQLSSLTSEDSAVYYCARSVYYGNKYFDVWGAGTTVTVSS
VL: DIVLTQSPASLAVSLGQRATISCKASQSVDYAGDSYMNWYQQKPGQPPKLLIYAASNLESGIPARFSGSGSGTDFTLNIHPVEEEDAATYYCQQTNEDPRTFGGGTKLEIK
notes: also called 16E4 mAb; 16E4 mIgG2a
For B2, which “M3 gate, % of cells positive for MMRN2 after the antibody” value [5] is on record?
The value was 65.9%.

B3: h16E4 (humanized 16E4, VH4+VL6) (antibody, V domains shown)
VH: QVQLVQSGAEVKKPGASVKVSCKASGYTFTSYWMHWVRQAPGQGLEWMGEIDPSASYTYYNQKFKGRVTMTRDKSSSTVYMELSSLTSEDSAVYYCARSVYYGNKYFDVWGAGTTVTVSS
VL: DIQMTQSPSTLSASVGDRVTITCKASQSVDYAGDSYMNWYQQKPGKAPKLLIYAASNLESGVPSRFSGSGSGTEFTLTISSLQPDDFATYYCQQTNEDPRTFGGGTKLEIK
notes: Detected with anti-human IgG, so a human Fc
Which Kd [6] does the source give for B3 here?
The Kd was 0.416 nM.

And the koff [6]?
The koff was 0.000104 s⁻¹.

And the kon [6]?
The kon was 249000 M⁻¹ s⁻¹.

What about the EC50 [7] of the same binder?
The EC50 was 0.274 nM.

— patent publication US20230365705A1 (DYNAMICURE BIOTECHNOLOGY, published 2023)
